Data as given in paper PMC8946150, “Microsphere Peptide-Based Immunoassay for the Detection of Recombinant Bovine Somatotropin in Injection Preparations” (Biosensors, 2022).
Changes are numbered by the printed parent chain.

B1: eST: equine somatotropin from Bresagen (protein, UniProt P01245 27-216, looked up)
Somatotropin: FPAMPLSSLFANAVLRAQHLHQLAADTYKEFERAYIPEGQRYSIQNAQAAFCFSETIPAPTGKDEAQQRSDMELLRFSLLLIQSWLGPVQLLSRVFTNSLVFGTSDRVYEKLRDLEEGIQALMRELEDGSPRAGQILKQTYDKFDTNLRSDDALLKNYGLLSCFKKDLHKAETYLRVMKCRRFVESSCAF
B2: pST: Porcine Somatotropin from Sigma-Aldrich (protein, UniProt P01248 27-216, looked up)
Somatotropin: B1 Somatotropin with M72V, L91F, R113K
B3: rbST: 191 amino acid long protein hormone; rbST protein standard from NHPP (Dr. Parlow) (protein, UniProt P01246 27-217, looked up)
Somatotropin: AFPAMSLSGLFANAVLRAQHLHQLAADTFKEFERTYIPEGQRYSIQNTQVAFCFSETIPAPTGKNEAQQKSDLELLRISLLLIQSWLGPLQFLSRVFTNSLVFGTSDRVYEKLKDLEEGILALMRELEDGTPRAGQILKQTYDKFDTNMRSDDALLKNYGLLSCFRKDLHKTETYLRVMKCRRFGEASCAF

What was measured:
MAb 4H12 [1] = assay: MIPA binding of MAb 4H12 to peptide- or rbST-coupled microspheres; conditions: peptide or protein coupled to microspheres, MAGPIX read-out
Experimental: (§1) Microsphere preparation was executed according to Bremer et al. with the exception that Magplex® microsphere sets instead of seroMAP microspheres were used. During the procedure, microspheres were trapped using a magnet (1 min) and after removal of the supernatant, trapped microspheres were resuspended by vortexing (1 min). The peptides pep, pep-K, pep-peg, pep-aca and rbST standard were coupled to the different internally dyed microsphere sets, i.e., microsphere set numbers 012, 043, 029, 038 and 064, respectively (Figure 2). The internal dye gives the microsphere set a unique spectral signature, and consequently, a unique read-out region. For each microsphere set, 2.5 × 10^6 microspheres were covalently coupled with a two-step carbodiimide reaction using 500 μL of 100 µg mL^−1 peptide in boric acid solution (100 mM boric acid, 1M NaCl, adjusted to pH 8.3 with NaOH), and 100 µg mL^−1 rbST in MES buffer (50 mM MES pH 5.0). After coupling, the microspheres were stable for over 1 year when stored in a blocking buffer (PBS, 0.1% BSA, 0.02% Tween-20 and 0.05% NaN3) at 2–8 °C in the dark until use, with the exception for the microspheres measured with XPS, which were stored in Milli-Q water until use.
(§2) In this procedure, all dilution and washing steps were executed using PBST containing 0.1% BSA. In total, 100 μL of rbST, eST, pST and hST standard solution or injection preparation extract were added to a low bind 96-well microtiter plate. Next, 10 μL of 20-, 2-, 2-, 1- and 0.7 ng mL^−1 antibody for microspheres coated with, respectively, pep, pep-peg, pep-aca, k-pep and rbST and microspheres (10 μL diluted suspension containing about 1250 microspheres per microsphere set) were added to each well. The microtiter plate was incubated for 20 min on a microtiter plate shaker to allow competition between the immobilized rbST epitope peptides or protein on the microspheres and the somatotropin (ST) present in the solution for the available antibody binding sites. After incubation, the microspheres were trapped by a magnet and washed twice. After washing, a 125 μL, 625-times diluted PE labeled Goat anti Mouse antibody was added and incubated for 20 min on a microtiter plate shaker. After this incubation step, microspheres were trapped with a magnet, supernatant removed and 125 µL PBST containing 0.1% BSA added. The plate was briefly mixed on the microtiter plate shaker before measuring on the imaging planar array analyzer (MAGPIX).

MAb 4H12 [2] = assay: Epitope mapping of rbST for MAb 4H12 (Pepscan, ELISA-type read out); type: binding; conditions: all four epitope designs (sets 1-4: linear 15-mers, double-Ala, α-helical loop mimics)
Excerpt: The entire sequence of rbST (Figure 1A) was epitope mapped for antibody 4H12 by Pepscan Presto BV (Lelystad, The Netherlands), as described before. Briefly, the rbST sequence was derived from the endogenous bST sequence by replacing the N-terminal alanine (Ala) with a methionine (Met) residue. With this rbST sequence, four sets of peptides were produced and used to determine the binding epitope of MAb 4H12: (i) linear peptides of 15 amino acids in length with an offset of one amino acid (set 1), (ii) linear peptides similar to set 1, with the amino acids on place 10 and 11 replaced by alanine (Ala); a native Ala present on place 10 and/or 11 was replaced by glycine (Gly) (set 2), (iii) α-helical loop mimics of 21 amino acids in length with an offset of one amino acid and cysteine residues on place 1 and 5 to enable connection with an α-helix-inducing mP2 chemical linkage of peptides onto scaffolds (CLIPS, set 3) and (iv) α-helical loop mimics similar to set 3, with the two Cys residues placed on amino acid numbers 1 and 8, which were also linked with mP2 CLIPS (set 4). Binding of Mab 4H12 to the described peptides is quantified using an ELISA-type read out.
Figure 1 Schematic representation of the four epitope mapping approaches to identify peptide-based mimics of recombinant bovine somatotropin (rbST) that bind to the monoclonal antibody 4H12. […]

MAb 4H12 [3] = assay: Inhibition MIPA (microsphere peptide-based immunoassay, indirect competitive format, MAGPIX); type: binding; conditions: for recognition / cross-reactivity of somatotropins with MAb 4H12: calibration curves up to 100 µg mL^-1, PBST/BSA; for concentration of full inhibition: somatotropin as competitor in PBST/BSA
Experimental: as §1, §2
Figure 3 Summarized workflow and assay principle of the indirect competitive assay format for somatotropins. In absence of rbST (upper part), MAb 4H12 binds to the peptide-coated microspheres, which enables binding of the PE coupled secondary antibody. The presence of PE results in a high signal in the imaging planar array analyzer. In presence of rbST (lower part), MAb 4H12 binds to the rbST in solution. […] As no PE is present, this will result in a low signal in the imaging planar array analyzer.

dairy cows = conditions: according to the manufacturer's protocol; cited from earlier work
Excerpt: RbST is a 191 amino acid long protein hormone that enhances growth and lactating performance in cattle. When administered to dairy cows according to the manufacturer’s protocol, milk production can increase up to 25% [11]. The use of rbST for milk-enhancing properties is approved in several countries, but is banned in the European Union. To control this ban, a strategy to detect rbST misuse in the EU has been described by Smits et al.. The strategy for rbST in serum and milk from dairy cows is based on the digestion of the proteins and detection of rbST-specific peptides formed ...

MAb 5E2 = assay: Surface plasmon resonance, MAb 5E2 on immobilized rbST or pep-peg; type: binding
Excerpt: (§3) Although the literature often describes the need for spacers in peptide-based biorecognition assays, in our assay format based on the MAb 4H12 and the peptide 115[…]125 biorecognition pair, no spacers were required. […] The presence of peptides on the microspheres was proven by XPS measurements (Supplementary Materials, Figure S2). In addition, the specificity was compared by initial surface plasmon resonance (SPR) experiments, where the pep-peg peptide was coupled to one microfluidic channel and rbST to another channel of the sensor surface. The sensor channels were incubated with two different rbST-induced monoclonal antibodies, MAb 4H12, which specifically binds the peptide 115[…]125 and MAb 5E2, which recognizes another, yet unknown, epitope. […] Next, MAb 4H12 concentrations were optimized for the microsphere peptide-based immunoassay to a dilution factor corresponding to a signal intensity of 1000 MFI for the blank standard (dilution buffer, Supplementary Materials, Table S2). […] The antibody concentrations in combination with the respective microspheres were used to determine the sensitivity of MAb 4H12 for the determination of full rbST-protein in standard solutions, as shown in Figure 4. For bot, rbST-protein and peptide immobilized microspheres, typical dose-response curves were obtained, with IC50 values of, respectively, 0.20 µg mL^−1 and 0.11 µg mL^−1.

MAb 4H12 [4] = assay: Surface plasmon resonance, MAb 4H12 on immobilized rbST or pep-peg; type: binding
Excerpt: as §3

[5] = microspheres coupled with pep, n = 2

| Molecule | binding of MAb 4H12 to coupled microspheres (MAb 4H12 [1]) | recognition / cross-reactivity of somatotropins with MAb 4H12 (MAb 4H12 [3]; [5]) | concentration of full inhibition (MAb 4H12 [3]; [5]) | further results |
| --- | --- | --- | --- | --- |
| DLEEGILALMR [pep] | showed binding | – | – | binding between MAb 4H12 and epitope sequence (MAb 4H12 [2]): binding |
| MRIEGLADLEL [pep-scr, linear peptide scrambled] | did not show any binding | – | – | binding of MAb 4H12 to coupled microspheres (MAb 4H12 [1]; listed as scrambled peptide): no binding occurred |
| hST: human Somatotropin from Sigma-Aldrich | – | not able to recognize and bind | – | – |
| B1 | – | cross-reactivity was seen | around 100 µg mL^-1 | – |
| B2 | – | cross-reactivity was seen | around 100 µg mL^-1 | – |
| B3 | showed binding | – | – | increase of milk production (dairy cows): up to 25%; IC50 of rbST in inhibition MIPA, per microsphere set (MAb 4H12 [3]; competitor rbST in PBST/0.1% BSA, label = peptide or protein coupled to the microspheres, MAb 4H12 20, 2, 2, 1, 0.7 ng mL^-1 for pep, pep-peg, pep-aca, pep-K, rbST, 20 min incubation, GAM-PE, MAGPIX, four-parameter fit, n = 3): 0.20 µg/mL; inhibition of MAb 4H12 at 1 µg mL^-1 (MAb 4H12 [3]; somatotropin as competitor at 1 µg mL^-1 in PBST/BSA, microspheres coupled with pep, n = 2): almost completely inhibits; SPR binding of MAb 5E2 (MAb 5E2): Both MAbs showed binding; SPR binding of MAb 4H12 (MAb 4H12 [4]): Both MAbs showed binding |
